# Measured values: patent US20240240209A1, “SYNTHESIS OF ENANTIOPURE CIS-A-IRONE FROM A RENEWABLE CARBON SOURCE” (Agency for Science, Technology and Research, priority 2021, published 2024)
# B1: pMT7: pMT1 with Y200F S182E L273V L180A A202L Y65F (protein)
# chain: MPQEARTPQQQVTADEVGDWYDKFGEVYHLTLGESVHCGLWFPPDAPVPQDMELVTMSSQAQDRFTDYLIETLDPKAGQHLLDIGCGTGRTALKAARQRGIAVTGVAVSKEQIAAANRLAAGHGLTERLTFEVADAMRLPYEDESFDCAWAIESLCHMDRAKALGEAWRVLKPGGDLLVAEEVVTEELTEPETALFETLFALNVPPRLGEFFDIVSGAGFHTLSLKDLSANLAMTMNVFALGVYSRRAEFTERFGAEFVDGLLAGLGSAQETVIRKTRFFMATLRKPAV
# modifications: Modified from pMT1
# notes: pMT1 with Y200F S182E L273V L180A A202L Y65F
# B2: pMT10: pMT1 with Y200F S182E L273V L180A A202L Y65F C156A T91P (protein)
# chain: MPQEARTPQQQVTADEVGDWYDKFGEVYHLTLGESVHCGLWFPPDAPVPQDMELVTMSSQAQDRFTDYLIETLDPKAGQHLLDIGCGTGRPALKAARQRGIAVTGVAVSKEQIAAANRLAAGHGLTERLTFEVADAMRLPYEDESFDCAWAIESLAHMDRAKALGEAWRVLKPGGDLLVAEEVVTEELTEPETALFETLFALNVPPRLGEFFDIVSGAGFHTLSLKDLSANLAMTMNVFALGVYSRRAEFTERFGAEFVDGLLAGLGSAQETVIRKTRFFMATLRKPAV
# modifications: Modified from pMT1
# notes: pMT1 with Y200F S182E L273V L180A A202L Y65F C156A T91P
# Tests used:
# [1] = In vivo cis-α-irone production from glucose/glycerol in strain 2O31 cultures; format: cell-based, Escherichia coli; settings: pMT plasmid transformed into strain 2O31; 2 days
# Excerpt: The advantage of in vivo biotransformation is that microbial cells can regenerate expensive co-factors rendering the scale-up bioprocess more cost-effective. […] Thus, pMT was incorporated into our psi-ionone producing microbe^7,8, to synthesize cis-α-irone from cheap renewable carbon sources (glucose/glycerol) (FIG. 4 and FIG. 19). To achieve high productivity, the psi-ionone production was first optimized by multidimensional heuristic process (MHP)^15, and strain 2O31 was identified to be the highest producer for psi-ionone (FIG. 19b). 2O31 was used as the base strain to probe cis-α-irone production in vivo (Table 5). Moreover, to improve the plasmid stability, auxotrophic strain was used with chemically defined media^1. The plasmid carrying pMT1, pMT7 or pMT10 was transformed into the strain 2O31, and produced less than 0.01, about 2 and about 3 mg/L cis-α-irone respectively in 2 days (FIG. 19d). To further optimize irone production with pMT10, three different culture conditions were tested: no methionine or dodecane added (control); 10 mM methionine added; 10 mM methionine and 20% dodecane added. In the control reaction, approximately 4.8 mg/L or 0.85 mg/L/OD cis-α-irone was produced after 3-day incubation (2O31-pMT10, FIGS. 4c and 4e). […] Lastly, when both methionine and dodecane were added, psi-ionone was accumulated in the organic layer and only ˜0.3 mg/L or ˜0.05 mg/L/OD cis-α-irone was produced (2O31-pMT10, FIGS. 4c, d and e). […] The limited methylation efficiency might be due to insufficient cofactor or SAH inhibition. […] In fact, the total amount of psi-ionone and cis-α-irone decreased (FIG. 4c, and d). As SAM biosynthesis is regulated by metJ in E. coli^16,17, the aforementioned six reactions were subsequently examined under metJ deleted genetic background (2O31, ΔmetJ). An increase in cis-α-irone titer to ˜5.7 mg/L was produced by 2O31 ΔmetJ-pMT10 strain with 10 mM methionine supplementation (FIG. 4c). An increase in specific cis-α-irone titer to ˜1.2 mg/L/OD was produced by 2O31 ΔmetJ-pMT10r strain without methionine supplementation (FIG. 4d). […]
# [2] = Purified pMT7/pMT10 reaction with auxiliary enzymes mtn and mtaD; format: biochemical; settings: for cis-α-irone amount relative to pMT7 reaction alone: purified enzyme
# Excerpt: All the purified enzyme reactions were done in triplicates.
# An alternative strategy to reduce SAH inhibition is to introduce auxiliary enzymes that degrade SAH12 (FIG. 18a). […] Noteworthy, with mtaD enzyme, cis-α-irone production by pMT10 was improved by ˜2.5 fold as compared to pMT10 reaction alone (FIG. 3c). […] This somewhat agrees with the effect of mutating D135, which abolishes the hydrogen bond interaction between pMT7 and the amine group of the adenine moiety.
Molecule,cis-α-irone produced [1],cis-α-irone production improvement with mtaD enzyme ([2]; as compared to pMT10 reaction alone) [fold],cis-α-irone amount relative to pMT7 reaction alone ([2]; with mtaD) [fold],cis-α-irone amount relative to pMT7 reaction alone ([2]; without mtaD) [fold]
B1,about 2 mg/L,–,–,–
B2,about 3 mg/L,~2.5,~6.5,~4.5
